Laboratory results as given in patent publication US20130289246A1.

Legend:
[1] = biological target: recombinant soluble 1957 H2 HA (A/Japan/305+/1957) (Influenza A virus A/Japan/305+/1957 (H2N2)); experiment: ELISA, supernate
[2] = biological target: recombinant soluble 1968 H3 HA (A/Aichi/2/1968) (Influenza A virus A/Aichi/2/1968 (H3N2)) (UniProt P03437); experiment: ELISA, supernate
[3] = biological target: recombinant soluble trimeric 1918 H1 HA (A/South Carolina/1/1918, wild type) (Influenza A virus A/South Carolina/1/1918 (H1N1)) (UniProt Q9WFX3); experiment: ELISA, supernate
[4] = biological target: recombinant soluble trimeric 2009 H1 HA (A/California/04/2009, wild type) (Influenza A virus A/California/04/2009 (H1N1)); experiment: ELISA, supernate
[5] = biological target: soluble 1999 H1 HA (seasonal 1999 H1N1) (Influenza A virus (H1N1, 1999)); experiment: ELISA, supernate; further: test concentration or dose not given here
[6] = biological target: soluble 2004 H5 HA (Influenza A virus (H5N1, 2004)); experiment: ELISA, supernate
[7] = biological target: HA of A/Brisbane/59/2007 (H1N1) virus (Influenza A virus (H1N1)); experiment: cell-based or functional assay
[8] = biological target: HA of A/California/04/2009 (H1N1) virus (Influenza A virus (H1N1)); experiment: cell-based or functional assay
[9] = biological target: HA of A/L3/1947 (H1N1) virus (Influenza A virus (H1N1)); experiment: cell-based or functional assay
[10] = biological target: HA of A/New Caledonia/20/1999 (H1N1) virus (Influenza A virus (H1N1)); experiment: cell-based or functional assay
[11] = biological target: HA of A/New Jersey/11/1976 (H1N1) virus (Influenza A virus (H1N1)); experiment: cell-based or functional assay
[12] = biological target: HA of A/South Carolina/1/1918 (H1N1), wild type, on VLP (Influenza A virus A/South Carolina/1/1918 (H1N1)) (UniProt Q9WFX3); experiment: cell-based or functional assay
[13] = biological target: HA of A/USSR/92/1977 (H1N1) virus (Influenza A virus (H1N1)); experiment: cell-based or functional assay
[14] = biological target: HA of A/Weiss/1943 (H1N1) virus (Influenza A virus (H1N1)); experiment: cell-based or functional assay
[15] = biological target: HA of A/swine/Iowa/15/1930 (H1N1) virus (Influenza A virus (H1N1)); experiment: cell-based or functional assay
[16] = biological target: recombinant soluble trimeric 2009 H1 HA (A/California/04/2009, wild type) (Influenza A virus A/California/04/2009 (H1N1)); experiment: biolayer interferometry (Octet Red), His-tagged HA on anti-Penta-HIS tips

Row | Binder | OD [1] [OD] | OD [4] [OD] | OD [5] [OD] | OD [6] [OD] | also measured
1 | mAb 8F24 (antibody, V domains shown) VH: EVQLLESGGGLVQPGGSLRLSCAASGFAFSSYGMSWVRQAPGKGLEWVSAFSGSGTSTYYADSVKGRFTISRDKSKNTLYLQMNSLRAEDTAIYYCAKPPGPYIVVAGLFENWGRGTLVTVS VL: EIVMTQSPATLSVSPGERVTLSCRASQSITDGLAWYQQKSGQAPRLLIYGASTRATGIPARFSGSGSGTEFTLTISSLQSEDFAVYYCQQYNNWPPVTFGQGTKVEIKR | 0.073 | 0.714 | 1.01 | 0.074 | OD [2]: 0.669 OD; OD [3]: 0.209 OD
2 | mAb 25F7 (antibody, V domains shown) VH: EVQLLESGGGLVQPGGSLRLSCAASGFAFSSYGMSWVRQAPGKGLEWVSAFSGSGTSTYYADSVKGRFTISRDKSKNTLYLQMNSLRAEDTAIYYCAKPPGPYIVVAGLFENWGRGTLVTVS VL: QSVLTQPPSVSGAPGQRVTISCTGTSSNIGAGYEVHWYQQLPGTAPKLIINANTNRPSGVPDRFSGSQSGTSASLAITGLRAEDEADYYCQSFDSSLSGWLFGGGTKLTVLG | 0.871 | 0.078 | 0.077 | 0.076 | OD [2]: 0.085 OD; OD [3]: 0.075 OD
3 | mAb 11J19 (antibody, V domains shown) VH: EVQLQESGPGLVKPSETLSLSCTVSGGSITRSSYYWGWIRQPPGKGLEWIGNIYYSGTTYYNPSLKSRVTISVDTSKNQFSLKLSSVTAADTAVYYCARLYGSGLDYWGQGTLVTVS VL: DIQLTQSPSFLSASVGDRVTITCRASQGSSRYVAWYQQKPGKAPKLLILAASTLHTGVPSRFSGSGSGTEFTLTISSLQPEDFATYSCQQLNGFLLTFGGGTKVEIKR | 0.079 | 0.081 | 0.071 | 0.067 | 
4 | mAb 6D9 (antibody, V domains shown) VH: EVQLVESGGGLVQPGGSLRLSCAASGFIFESYWMTWVRQAPGKGLEWVANIKQDGSEKNYVDSVKGRFTISRDNAKTSLYLQMNSLRAEDTAMYYCARSGSNWDTYYYYYGMDVWGQGTTVTVS VL: EIVLTQSPGTLSLSPGERATLSCRASQSVDSNYLGWYQQRPGQAPRLLIYGASSRATGVPDRFSASGSGTDFTLSISRLEPEDFAVYYCQQYGSSFGQGTKVEIKR |  |  |  |  | HAI activity [7]: > 20 µg/mL; HAI activity [8]: 0.7 µg/mL; HAI activity [9]: > 20 µg/mL; HAI activity [10]: > 20 µg/mL; HAI activity [11]: 1.3 µg/mL; HAI activity [12]: 0.2 µg/mL; HAI activity [13]: 2.5 µg/mL; HAI activity [14]: > 20 µg/mL; HAI activity [15]: 0.4 µg/mL
5 | mAb 5J8 (antibody, V domains shown) VH: EVQLVESGPGLVKPSDILSLTCAVSGYSISSNYYWGWIRQPPGKGLEWIGSIYHSGSTYYKPSLESRLGISVDTSKNQFSLKLSFVSAADTAVYYCARHVRSGYPDTAYYFDKWGQGTLVTVS VL: SYVLTQPPSVSVAPGETARISCGGNNIGTKVLHWYQQTPGQAPVLVVYDDSDRPSGIPERFSGSNSGNTATLTISRVEVGDEADYYCQVWDISTDQAVFGGGTKLTVLG | 0.077 | 1.93 | 1.46 | 0.077 | 
6 | 5J8 Fab (Fab, V domains shown) VH: EVQLVESGPGLVKPSDILSLTCAVSGYSISSNYYWGWIRQPPGKGLEWIGSIYHSGSTYYKPSLESRLGISVDTSKNQFSLKLSFVSAADTAVYYCARHVRSGYPDTAYYFDKWGQGTLVTVS VL: SYVLTQPPSVSVAPGETARISCGGNNIGTKVLHWYQQTPGQAPVLVVYDDSDRPSGIPERFSGSNSGNTATLTISRVEVGDEADYYCQVWDISTDQAVFGGGTKLTVLG |  |  |  |  | Kd [16]: 26 nM; koff [16]: 0.0065 s⁻¹; kon [16]: 250000 M⁻¹ s⁻¹
7 | mAb 25J3 (antibody, V domains shown) VH: QVQLQESGPGLVRPSETLSLTCNVSGDSINDYYWSWIRQPPGKGLEWIGYIYYSGSTNYNPSLNSRVTISVEMSKNQFSLILNSVTAADTAVYYCARVDYDSGGSFDPWGQGTLVTVS VL: QSVLTQPPSVSGAPGQRVTISCTGSSSNIGAGYDVHWYQQLPGTAPKLLIYGNSNRPSGVPDRFSGSKSGTSASLAITGLQAEDEADFYCQSYDSRLSGYVFGTGTKVTVLG | 0.07 | 0.071 | 0.071 | 0.07 | 
8 | mAb 3J10 (antibody, V domains shown) VH: EVQLVESGGGVVQPGRSLRLSCAASGFSFSNYAMHWVRQAPGKGLEWVALISFDGSDKYYADSVKGRFTMSRDNSKNTLYLQMNSLRAEDTAVYYCARDEPYCGGDCFAFDVWGQGTMVTVS VL: QSVLTQPPSVSGAPGQRVTISCTGSSSNIGAGYDVHWYQQLPGTAPKLLIYANNNRPSGVPDRFSGSKSGTSASLAITGLQAEDEADYYCQSYDSSLSGGVFGTGTTVTVLG | 0.074 | 0.073 | 0.711 | 0.075 | OD [2]: 0.076 OD; OD [3]: 0.069 OD
9 | mAb 2O10 (antibody, V domains shown) VH: EVQLVESGGGLVQPGGSLRLSCAASGFTFNSYWMTWVRQAPGKGLEWVANINQDGSEKFFVDSVKGRFTISRDNAKTSLYLQMNSLRVEDTAVYYCAREGAPYDTYYYYYAMDVWGQGTTVTVS VL: QSVLTQPPSVSGAPGQRVTISCTGTSSNIGAGYGVHWYQQLPGAAPKLLVYGNSNRPSGVPDRFSGSKSGTSASLAITGLQAEDEADYYCQSYDISLSGSNVFGTGTKVTVLG | 0.073 | 1.62 | 0.872 | 0.072 | 
10 | mAb 2K11 (antibody, V domains shown) VH: EVQLVESGGGLVQPGGSLRLSCVASTFSLINYWMTWVRQAPGKGLEWVANIKQDGFEKYYVDSVKGRFTISRDNAKNSLYLQMNSLRVEDTAVYYCARQGSYADTYFYHYGMDVWGQGTTVTVS VL: QSALTQPPSVSGAPGQRVTISCTGSSSNIGAGYDAYWYQQLPGTAPKLLIYGNSNRLSGVPDRFSASKSGTSASLAITGLQAEDEADYYCQSYDSSLSIFGGGTKLTVLR | 0.08 | 1.28 | 0.518 | 0.075 | 
11 | mAb 6K14 (antibody, V domains shown) VH: EVQLVESGAEVKKPGASVKVSCKASGYTFTSFDINWVRQAPGQGLEWMGWMTPTSGKTGYAQKFQGRITMTRNTSINTAYMELSSLRSEDTAVYFCARGPERRTTIFDVILDWFDPWGQGTLVTVS VL: DIVMTQSPFSLSLSPGERATLSCRASQSISNYLAWYQQKPGQAPRLLIYDSSNRATGVPARFSGSGSGTDFTLTISSLEPEDFAVYYCQQRSNWMYTFGQGTKVEIKR | 1.93 | 2.12 | 0.203 | 1.12 | 
12 | mAb 3E22 (antibody, V domains shown) VH: EVQLVESGAEVKKPGASVKVSCKASGYTFSRYYIHWVRQAPGQELEWMGWINPDSGDTNYAQKFRGRVTMARDTSISTVYMELNSLRYDDTAVYFCARIIWSSSGMDVWGQGTTVTVS VL: QSALTQPASVSGSPGQSITISCTGTSSDVGSYNLVSWYQQHPGKAPKLMIYEVSKRPSGVSNRFSGSKSGNTASLTISGLQAEDEADYYCHLYVGSSNWVFGGGTKLAVLG | 1.18 | 2.38 | 2.06 | 1.57 | 
13 | mAb 4K8 (antibody, V domains shown) VH: EVQLVESGGGLVQPGGSLRLSCAASEFNFKSYWMTWVRQAPGKGLEWVANINQDGSEKNYVDSVKGRFTISRDNAKNSLHLQMSSLRVDDTAVYYCARTGSSWDTYYYYYAMDVWGQGTTVTVS VL: DIQLTQSPVSLSLSPGERATLSCRASQSVSSSYLVWYQQKPGQAPRLLIYGASSRAPGIPDRFSGSGSGTDFTLTISRLEREDFAVYYCQQYGRSFGQGTKVEIKR |  |  |  |  | HAI activity [7]: > 20 µg/mL; HAI activity [8]: < 0.01 µg/mL; HAI activity [9]: > 20 µg/mL; HAI activity [10]: > 20 µg/mL; HAI activity [11]: 0.16 µg/mL; HAI activity [12]: < 0.01 µg/mL; HAI activity [13]: 0.32 µg/mL; HAI activity [14]: > 20 µg/mL; HAI activity [15]: < 0.01 µg/mL
14 | mAb 10E15 (antibody, V domains shown) VH: EVQLLESGGGVVQPGRSLRLSCAASGFTFRTYGMHWVRQAPGKGLEWVAVISHDGNLKYYGGSVKGRFTISRDNSKNALYLQMNSLRVDDTALYYCARGIGITDAFDIRGQGTMVVVS VL: QSVLTQPPSVSAAPGQKVTISCSGSSSNIGKNYVSWYQQLPGTAPKLLIYDNDKRPSGIPDRFSGSKSGTSATLGITGLQTGDEADYHCGAWDSSLNGGVFGGGTKVTVLG | 0.485 | 0.996 | 0.514 | 1.69 | 
15 | mAb 18G6 (antibody, V domains shown) VH: QVQLKESGPGLVKPSETLSLTCTVSGGSISSSNYNWGWIRQPPGKGLEWIGSVYYSGSTYFNPSLKSRVTISVDTSKNQFSLKLTSVTAADTAVYYCARLIAFYYDTNGYTWGQGTLVTVS VL: NSIMTQSPFTLSASVGDKVTITCRASQSISPWLAWYQQKPGKAPKLLIYKASSLETGVPSRFSGSESGTEFTLTISGLQPDDFATYYCQQYSSFARTFGQGTKVEIKR | 0.757 | 0.071 | 0.071 | 0.071 | 
